In patent US20190315855 (published 2019):
Residue numbers refer to the chain shown, from its start.

T1: mouse DLL4 ECD (mouse, UniProt Q9JI71)
T1 chain: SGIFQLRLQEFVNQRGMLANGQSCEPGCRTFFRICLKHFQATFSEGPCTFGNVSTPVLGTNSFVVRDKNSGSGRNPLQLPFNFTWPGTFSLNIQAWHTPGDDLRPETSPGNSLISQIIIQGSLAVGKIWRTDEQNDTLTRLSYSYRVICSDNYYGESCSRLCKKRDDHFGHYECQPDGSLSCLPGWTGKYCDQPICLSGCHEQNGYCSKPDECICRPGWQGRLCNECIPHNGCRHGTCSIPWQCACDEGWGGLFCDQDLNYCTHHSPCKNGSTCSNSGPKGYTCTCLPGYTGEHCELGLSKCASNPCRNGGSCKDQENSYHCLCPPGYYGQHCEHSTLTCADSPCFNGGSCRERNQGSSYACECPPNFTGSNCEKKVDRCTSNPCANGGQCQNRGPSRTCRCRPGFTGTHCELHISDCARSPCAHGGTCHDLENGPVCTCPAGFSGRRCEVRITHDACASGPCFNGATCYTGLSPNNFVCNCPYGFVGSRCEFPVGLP

T2: mouse DLL4 (cell surface) (mouse, UniProt Q9JI71)
T2 chain: T1 chain

B1: h1A11.A12 (antibody, V domains shown)
VH: EVQLVESGGGLVQPGGSLRLSCAASGFTFSNFPMAWVRQAPGKGLEWVATISSSDGTTYYRDSVKGRFTISRDNAKNSLYLQMNSLRAEDTAVYYCARGYYNSPFAYWGQGTLVTVSS
VL: DIQMTQSPSSLSASVGDRVTITCRASQDIYYNLAWYQQKPGKSPKLLIFDTSSLADGVPSRFSGSGSGTDFTLTISSLQPEDFATYFCQQYDWYPPTFGQGTKLEIK
B2: h1A11.A7 (antibody, V domains shown)
VH: B1 VH
VL: B1 VL with Y31I, S43A, S53D, F87Y, W93Y
B3: 14G1 rat mAb (antibody, V domains shown)
VH: EVQLQQSGAELAKPGSSVKISCKASGYTFTNYDISWIKQTNGQGLEYLGYINTGSGGIYSNEKFKGKATLTVDKSSNTAFMQLSSLTPEDTAVYYCVREGNNFDHWGQGVKVTVSS
VL: DTVMTQSPASMSTSVGERVTVNCKASQSVGTIVAWFQQKPGQSPKRLIYLATYRHTGVPDRFIGSGFGRDFTLTISNVEAEDLAVYYCLQYGSRPFTFGAGTKLEIKR
B4: 14A11 rat mAb (antibody, V domains shown)
VH: EVQLQQSGPELAKPGSSVKISCKASGYTFTNSYISWIKQTTGQGLEYVGYINTGSGGADYNEKFKGKATLTVDKSSRTAFMQLSSLTPGDSAVYYCAKSILLGSTCYFDYWGQGVLVTVSS
VL: NTVLTQSPALAVSLGQRVTISCKASRSVSSPMYSYIYWYQQKPGQQPKLLIYRASTLASGVPARFSGSGSGTDFTLNIDPVEADDIATYFCQQSWSDPFTFGSGTKLEIKR
B5: h38H12.9 (antibody, V domains shown)
VH: EVQLVESGGGVVQPGRSLRLSCAASGFTFSNYGMYWVRQAPGKGLEWVAFISHGGGITYYRDSVKGRFTISRDNSKNTLYLQMNSLRAEDTAVYYCAALNWELGIDYWGQGTMVTVSS
VL: DIQMTQSPSSLSASVGDRVTITCRASEDIYSNLAWYQQKPGKAPKLLIYAANRLQDGVPSRFSGSGSGTDFTLTISSLQPEDFATYYCLQGSKFPLTFGQGTKLEIKR
B6: h38H12.5 (antibody, V domains shown)
VH: B5 VH with V37I, N77S, Y95H
VL: B5 VL
B7: h38H12.6 (antibody, V domains shown)
VH: B5 VH with V37I, N77S, Y95H
VL: B5 VL with Q38K, A43S, F71Y, Y87F
B8: h38H12.10 (antibody, V domains shown)
VH: B5 VH
VL: B5 VL with Q38K, A43S, F71Y, Y87F
B9: h38H12.15 (antibody, V domains shown)
VH: B5 VH with V11L, R16G, V37I, N77S, Y95H
VL: B5 VL with F71Y
B10: h38H12.14 (antibody, V domains shown)
VH: B5 VH with V11L, R16G, V37I, N77S, Y95H
VL: B5 VL with Q38K, A43S, F71Y, Y87F
B11: h38H12.13 (antibody, V domains shown)
VH: B5 VH with V11L, R16G, V37I, N77S, Y95H
VL: B5 VL
B12: h38H12.12 (antibody, V domains shown)
VH: B5 VH
VL: EIVMTQSPATLSVSPGERATLSCRASEDIYSNLAWYQKKPGQSPRLLIYAANRLQDGVPARFSGSGSGTEYTLTISSLQSEDFAVYFCLQGSKFPLTFGQGTKLEIKR
B13: h38H12.11 (antibody, V domains shown)
VH: B5 VH
VL: B5 VL with F71Y
B14: h38H12.8 (antibody, V domains shown)
VH: B5 VH with V37I, N77S, Y95H
VL: B12 VL
B15: h38H12.16 (antibody, V domains shown)
VH: B5 VH with V11L, R16G, V37I, N77S, Y95H
VL: B12 VL
B16: h38H12.7 (antibody, V domains shown)
VH: B5 VH with V37I, N77S, Y95H
VL: B5 VL with F71Y

Target: T1, mouse DLL4 ECD
Assay: SPR

In order of rising Kd:
1. B2  13 nM
2. B1  16 nM

Target: T2, mouse DLL4 (cell surface)
Assay: FACS

In the case of B3, the EC50 is reported as over 50.9 nM.

Each binder was assayed against human DLL4 (cell surface) (human) (assay: FACS).
Chain of human DLL4 (cell surface) (human) (chain, as listed by the source): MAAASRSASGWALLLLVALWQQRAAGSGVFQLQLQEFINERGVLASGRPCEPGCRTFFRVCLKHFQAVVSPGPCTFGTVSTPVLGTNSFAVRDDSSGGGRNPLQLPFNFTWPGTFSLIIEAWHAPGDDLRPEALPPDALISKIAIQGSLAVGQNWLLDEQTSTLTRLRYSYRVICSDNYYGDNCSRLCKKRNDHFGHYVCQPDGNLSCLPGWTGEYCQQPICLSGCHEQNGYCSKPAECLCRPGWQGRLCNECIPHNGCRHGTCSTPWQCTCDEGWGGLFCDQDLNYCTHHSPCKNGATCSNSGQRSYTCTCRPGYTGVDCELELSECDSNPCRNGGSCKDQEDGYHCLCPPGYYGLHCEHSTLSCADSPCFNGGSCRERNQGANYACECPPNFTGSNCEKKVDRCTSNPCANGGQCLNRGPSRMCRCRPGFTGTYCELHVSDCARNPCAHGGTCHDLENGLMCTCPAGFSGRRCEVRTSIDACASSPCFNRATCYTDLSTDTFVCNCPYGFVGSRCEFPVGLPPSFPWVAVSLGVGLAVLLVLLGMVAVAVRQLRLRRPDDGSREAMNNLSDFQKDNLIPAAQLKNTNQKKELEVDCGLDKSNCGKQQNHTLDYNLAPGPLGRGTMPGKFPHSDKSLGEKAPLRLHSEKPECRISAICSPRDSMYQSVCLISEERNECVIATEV

Binder B4 has an EC50 of over 50.9 nM.

What follows are binders tested against human DLL4 ECD (human) (assay: competition ELISA).
Chain of human DLL4 ECD (human) (chain, as listed by the source): as above

In order of falling IC50:
1. B7  27 nM
2. B6  14.8 nM
3. B16  12.5 nM
4. B14  8.31 nM
5. B10  5.84 nM
6. B9  5.71 nM
7. B11  5.29 nM
8. B5  4.16 nM
9. B8  3.9 nM
10. B13  3.8 nM
11. B15  3.77 nM
12. B12  3.23 nM
